According to FireProtDB (doi:10.1016/0022-2836(91)90566-o):

Details: Enterobacteria phage fd; pH 7; 25 °C; GdnHCl; CD; MOPS 50 mM; NaCl 100 mM; reversible: yes; whole UniProt chain shown

B1: DNA-Binding protein G5P wild type, P69542 (protein)
chain: MIKVEIKPSQAQFTTRSGVSRQGKPYSLNEQLCYVDLGNEYPVLVKITLDEGQPAYAPGLYTVHLSSFKVGQFGSLMIDRLRLVPAK
denaturant m value: 3.6 kcal/mol/M
denaturant midpoint (higher = more stable): 2.61 M
unfolding free energy: 9 kcal/mol
